The values below come from patent US20260176319A1 (KALLYOPE, published 2026).

Starred links: 1 amine or outer side, 2 acyl side, 3 side chain; linkers in the order of their positions; H or OH if unused. Non-standard residues stand in square brackets, D forms with d. No end group written: not given here. *: point of attachment. Trp(7-Me) = Cc1cccc2c(C[C@H](N)C(=O)O)c[nH]c12; C20 diacid = O=C(O)CCCCCCCCCCCCCCCCCCC(=O)*; d(γGlu) = O=C(O)[C@@H](CCC(=O)[*:2])N[*:1]; C18 diacid = O=C(O)CCCCCCCCCCCCCCCCC(=O)*; γGlu = O=C(O)[C@H](CCC(=O)[*:2])N[*:1]; Palmitoyl = CCCCCCCCCCCCCCCC(=O)*; Nle = CCCC[C@H](N)C(=O)O; AEEA = NCCOCCOCC(=O)O; Aib = CC(C)(N)C(=O)O; βAla = NCCC(=O)O

The assay concerns the target human GRP receptor (human, UniProt P30550 1-384). Kind of assay: cell-based or functional assay.

human GRP receptor, sequence (P30550 whole entry): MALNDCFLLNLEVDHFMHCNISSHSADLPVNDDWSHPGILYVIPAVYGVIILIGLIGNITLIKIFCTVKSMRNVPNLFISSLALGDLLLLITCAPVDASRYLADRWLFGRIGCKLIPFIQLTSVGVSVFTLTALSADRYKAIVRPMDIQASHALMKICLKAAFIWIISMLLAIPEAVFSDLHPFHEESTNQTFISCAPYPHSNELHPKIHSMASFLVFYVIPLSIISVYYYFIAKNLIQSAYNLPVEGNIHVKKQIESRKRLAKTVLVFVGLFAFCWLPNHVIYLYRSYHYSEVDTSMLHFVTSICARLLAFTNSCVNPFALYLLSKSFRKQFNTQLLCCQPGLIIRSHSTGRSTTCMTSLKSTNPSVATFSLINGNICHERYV

B1: Peptide 159 (peptide)
peptide: {C18 diacid}-[γGlu][AEEA][AEEA]GNHWAV[dA][dH]L[Nle]-NH2
SMILES: CCCC[C@H](NC(=O)[C@H](CC(C)C)NC(=O)[C@@H](Cc1c[nH]cn1)NC(=O)[C@@H](C)NC(=O)[C@@H](NC(=O)[C@H](C)NC(=O)[C@H](Cc1c[nH]c2ccccc12)NC(=O)[C@H](Cc1c[nH]cn1)NC(=O)[C@H](CC(N)=O)NC(=O)CNC(=O)COCCOCCNC(=O)COCCOCCNC(=O)CC[C@H](NC(=O)CCCCCCCCCCCCCCCCC(=O)O)C(=O)O)C(C)C)C(N)=O
In the case of B1, the “hIP1 GRPR EC50” value was determined as 101 nM.

B2: Peptide 243 (peptide)
peptide: {C18 diacid}-[γGlu][γGlu][AEEA][AEEA]GRHWAV[βAla]HL[Nle]-NH2
SMILES: CCCC[C@H](NC(=O)[C@H](CC(C)C)NC(=O)[C@H](Cc1c[nH]cn1)NC(=O)CCNC(=O)[C@@H](NC(=O)[C@H](C)NC(=O)[C@H](Cc1c[nH]c2ccccc12)NC(=O)[C@H](Cc1c[nH]cn1)NC(=O)[C@H](CCCNC(=N)N)NC(=O)CNC(=O)COCCOCCNC(=O)COCCOCCNC(=O)CC[C@H](NC(=O)CC[C@H](NC(=O)CCCCCCCCCCCCCCCCC(=O)O)C(=O)O)C(=O)O)C(C)C)C(N)=O
In the case of B2, the “hIP1 GRPR EC50” value stood at 3.6 nM.

B3: Peptide 162 (peptide)
peptide: {C20 diacid}-[γGlu]GRHWAV[dA]HL[Nle]
B3: the “hIP1 GRPR EC50” value turned out to be 19.6 nM.

B4: Peptide 13 (peptide)
peptide: Palmitoyl-[d(γGlu)][AEEA][AEEA]GNH[Trp(7-Me)]AV[dA]HL[Nle]-NH2
SMILES: CCCCCCCCCCCCCCCC(=O)N[C@H](CCC(=O)NCCOCCOCC(=O)NCCOCCOCC(=O)NCC(=O)N[C@@H](CC(N)=O)C(=O)N[C@@H](Cc1c[nH]cn1)C(=O)N[C@@H](Cc1c[nH]c2c(C)cccc12)C(=O)N[C@@H](C)C(=O)N[C@H](C(=O)N[C@H](C)C(=O)N[C@@H](Cc1c[nH]cn1)C(=O)N[C@@H](CC(C)C)C(=O)N[C@@H](CCCC)C(N)=O)C(C)C)C(=O)O
For the molecule B4, the “hIP1 GRPR EC50” value came to 1.08 nM.

B5: Peptide 166 (peptide)
peptide: {C18 diacid}-[γGlu][AEEA][AEEA]GRHWAV[dA]HL[Nle]
As for B5, the “hIP1 GRPR EC50” value worked out at 248 nM.

B6: Peptide 160 (peptide)
peptide: {C20 diacid}-[γGlu]GNHWAV[dA][dH]L[Nle]-NH2
SMILES: CCCC[C@H](NC(=O)[C@H](CC(C)C)NC(=O)[C@@H](Cc1c[nH]cn1)NC(=O)[C@@H](C)NC(=O)[C@@H](NC(=O)[C@H](C)NC(=O)[C@H](Cc1c[nH]c2ccccc12)NC(=O)[C@H](Cc1c[nH]cn1)NC(=O)[C@H](CC(N)=O)NC(=O)CNC(=O)CC[C@H](NC(=O)CCCCCCCCCCCCCCCCCCC(=O)O)C(=O)O)C(C)C)C(N)=O
In the case of B6, the “hIP1 GRPR EC50” value stood at 31.5 nM.

B7: Peptide 240 (peptide)
peptide: EEXXGNHWAVGHLX
modifications: Palmitoyl-γGlu-γGlu-OEG-OEG-Gly-Asn-His-Trp-Ala-Val-Gly-His-Leu-Nle-NH2
Consider B7, for which the “hIP1 GRPR EC50” value was 11.9 nM.

B8: Peptide 161 (peptide)
peptide: {C18 diacid}-[γGlu][AEEA][AEEA][dF]QHWAV[dA]HL[Nle]-NH2
SMILES: CCCC[C@H](NC(=O)[C@H](CC(C)C)NC(=O)[C@H](Cc1c[nH]cn1)NC(=O)[C@@H](C)NC(=O)[C@@H](NC(=O)[C@H](C)NC(=O)[C@H](Cc1c[nH]c2ccccc12)NC(=O)[C@H](Cc1c[nH]cn1)NC(=O)[C@H](CCC(N)=O)NC(=O)[C@@H](Cc1ccccc1)NC(=O)COCCOCCNC(=O)COCCOCCNC(=O)CC[C@H](NC(=O)CCCCCCCCCCCCCCCCC(=O)O)C(=O)O)C(C)C)C(N)=O
Turning to B8, the “hIP1 GRPR EC50” value stood at 21.4 nM.

B9: Peptide 242 (peptide)
peptide: {C20 diacid}-[γGlu][AEEA][AEEA]GRH[Trp(7-Me)]AV[βAla]HL[Nle]-NH2
SMILES: CCCC[C@H](NC(=O)[C@H](CC(C)C)NC(=O)[C@H](Cc1c[nH]cn1)NC(=O)CCNC(=O)[C@@H](NC(=O)[C@H](C)NC(=O)[C@H](Cc1c[nH]c2c(C)cccc12)NC(=O)[C@H](Cc1c[nH]cn1)NC(=O)[C@H](CCCNC(=N)N)NC(=O)CNC(=O)COCCOCCNC(=O)COCCOCCNC(=O)CC[C@H](NC(=O)CCCCCCCCCCCCCCCCCCC(=O)O)C(=O)O)C(C)C)C(N)=O
Consider B9, for which the “hIP1 GRPR EC50” value is 3.9 nM.

B10: Peptide 163 (peptide)
peptide: {C20 diacid}-[γGlu]RRHWAV[dA]HL[Nle]
As to B10, the “hIP1 GRPR EC50” value was found to be 88.5 nM.

B11: Peptide 164 (peptide)
peptide: {C20 diacid}-[γGlu]GNHWAV[dA]HL[Nle]
In the case of B11, the “hIP1 GRPR EC50” value was found to be 125 nM.

B12: Peptide 158 (peptide)
peptide: {C20 diacid}-[γGlu]RRHWAV[dA]HL[Nle]-NH2
SMILES: CCCC[C@H](NC(=O)[C@H](CC(C)C)NC(=O)[C@H](Cc1c[nH]cn1)NC(=O)[C@@H](C)NC(=O)[C@@H](NC(=O)[C@H](C)NC(=O)[C@H](Cc1c[nH]c2ccccc12)NC(=O)[C@H](Cc1c[nH]cn1)NC(=O)[C@H](CCCNC(=N)N)NC(=O)[C@H](CCCNC(=N)N)NC(=O)CC[C@H](NC(=O)CCCCCCCCCCCCCCCCCCC(=O)O)C(=O)O)C(C)C)C(N)=O
B12: the “hIP1 GRPR EC50” value came to 1.68 nM.

B13: Peptide 241 (peptide)
peptide: {C20 diacid}-[γGlu][AEEA][AEEA]GQHWAV[βAla]HL[Nle]-NH2
SMILES: CCCC[C@H](NC(=O)[C@H](CC(C)C)NC(=O)[C@H](Cc1c[nH]cn1)NC(=O)CCNC(=O)[C@@H](NC(=O)[C@H](C)NC(=O)[C@H](Cc1c[nH]c2ccccc12)NC(=O)[C@H](Cc1c[nH]cn1)NC(=O)[C@H](CCC(N)=O)NC(=O)CNC(=O)COCCOCCNC(=O)COCCOCCNC(=O)CC[C@H](NC(=O)CCCCCCCCCCCCCCCCCCC(=O)O)C(=O)O)C(C)C)C(N)=O
Consider B13, for which the “hIP1 GRPR EC50” value stood at 2 nM.

B14: Peptide 14 (peptide)
peptide: Palmitoyl-[d(γGlu)][AEEA][AEEA]GNH[Trp(7-Me)][Aib]V[dA]HL[Nle]-NH2
SMILES: CCCCCCCCCCCCCCCC(=O)N[C@H](CCC(=O)NCCOCCOCC(=O)NCCOCCOCC(=O)NCC(=O)N[C@@H](CC(N)=O)C(=O)N[C@@H](Cc1c[nH]cn1)C(=O)N[C@@H](Cc1c[nH]c2c(C)cccc12)C(=O)NC(C)(C)C(=O)N[C@H](C(=O)N[C@H](C)C(=O)N[C@@H](Cc1c[nH]cn1)C(=O)N[C@@H](CC(C)C)C(=O)N[C@@H](CCCC)C(N)=O)C(C)C)C(=O)O
For B14, the “hIP1 GRPR EC50” value was 10.8 nM.

B15: Peptide 167 (peptide)
peptide: {C20 diacid}-[γGlu][AEEA][AEEA]GRHWAV[dA]HL[Nle]
As to B15, the “hIP1 GRPR EC50” value came to 114 nM.

B16: Peptide 165 (peptide)
peptide: {C20 diacid}-[γGlu]GQHWAV[dA]HL[Nle]-NH2
SMILES: CCCC[C@H](NC(=O)[C@H](CC(C)C)NC(=O)[C@H](Cc1c[nH]cn1)NC(=O)[C@@H](C)NC(=O)[C@@H](NC(=O)[C@H](C)NC(=O)[C@H](Cc1c[nH]c2ccccc12)NC(=O)[C@H](Cc1c[nH]cn1)NC(=O)[C@H](CCC(N)=O)NC(=O)CNC(=O)CC[C@H](NC(=O)CCCCCCCCCCCCCCCCCCC(=O)O)C(=O)O)C(C)C)C(N)=O
As to B16, the “hIP1 GRPR EC50” value stood at 1.55 nM.
